Patent US20190389923A1 (BIORION TECHNOLOGIES B V, published 2019)
Bridge positions count the residues as written; N and C are the ends. Ends that are not written are not given here.

How the values were obtained:
[1] = target: T1, PDGF-beta receptor on primary freshly isolated rat hepatic stellate cells (rat, UniProt Q05030 32-1097); assay: FITC-BiPPB on primary rat hepatic stellate cells, fluorescence microscopy
T1 construct: whole, on cells; also called PDGFß-receptor; PDGF-βR
Experimental: (§1) Cells were seeded in the 8-well glass plates (Lab-Tek, Nunc, Naperville, Ill.) at 30,000 cells/well in the culture medium. […] After 2 h, cells were washed 3 to 4 times with cold PBS and fixed with 4% paraformaldehyde. The nuclei were counterstained with DAPI and mounted in citifluor (anti-fade reagent) and visualized under fluorescent microscope.

[2] = target: T2, PDGF-beta receptor on human cells (primary human myofibroblasts; human hepatic stellate cells LX2) (human, UniProt P09619 33-1106); assay: FITC-BiPPB on primary freshly isolated human myofibroblasts, fluorescence microscopy
T2 construct: whole, on cells; also called PDGFß-receptor; PDGF-βR
Experimental: as §1
(§2) Similar binding experiments were performed in primary freshly isolated human myofibroblasts, mouse 3T3 fibroblasts and human hepatic stellate cells (LX2).

[3] = target: T3, PDGF-beta receptor on mouse 3T3 fibroblasts (mouse, UniProt P05622 32-1098); assay: FITC-BiPPB on mouse 3T3 fibroblasts, fluorescence microscopy
T3 construct: whole, on cells; also called PDGFß-receptor; PDGF-receptor
Experimental: as §1, §2

Measured: binding result

T1 sequence (Q05030 32-1097): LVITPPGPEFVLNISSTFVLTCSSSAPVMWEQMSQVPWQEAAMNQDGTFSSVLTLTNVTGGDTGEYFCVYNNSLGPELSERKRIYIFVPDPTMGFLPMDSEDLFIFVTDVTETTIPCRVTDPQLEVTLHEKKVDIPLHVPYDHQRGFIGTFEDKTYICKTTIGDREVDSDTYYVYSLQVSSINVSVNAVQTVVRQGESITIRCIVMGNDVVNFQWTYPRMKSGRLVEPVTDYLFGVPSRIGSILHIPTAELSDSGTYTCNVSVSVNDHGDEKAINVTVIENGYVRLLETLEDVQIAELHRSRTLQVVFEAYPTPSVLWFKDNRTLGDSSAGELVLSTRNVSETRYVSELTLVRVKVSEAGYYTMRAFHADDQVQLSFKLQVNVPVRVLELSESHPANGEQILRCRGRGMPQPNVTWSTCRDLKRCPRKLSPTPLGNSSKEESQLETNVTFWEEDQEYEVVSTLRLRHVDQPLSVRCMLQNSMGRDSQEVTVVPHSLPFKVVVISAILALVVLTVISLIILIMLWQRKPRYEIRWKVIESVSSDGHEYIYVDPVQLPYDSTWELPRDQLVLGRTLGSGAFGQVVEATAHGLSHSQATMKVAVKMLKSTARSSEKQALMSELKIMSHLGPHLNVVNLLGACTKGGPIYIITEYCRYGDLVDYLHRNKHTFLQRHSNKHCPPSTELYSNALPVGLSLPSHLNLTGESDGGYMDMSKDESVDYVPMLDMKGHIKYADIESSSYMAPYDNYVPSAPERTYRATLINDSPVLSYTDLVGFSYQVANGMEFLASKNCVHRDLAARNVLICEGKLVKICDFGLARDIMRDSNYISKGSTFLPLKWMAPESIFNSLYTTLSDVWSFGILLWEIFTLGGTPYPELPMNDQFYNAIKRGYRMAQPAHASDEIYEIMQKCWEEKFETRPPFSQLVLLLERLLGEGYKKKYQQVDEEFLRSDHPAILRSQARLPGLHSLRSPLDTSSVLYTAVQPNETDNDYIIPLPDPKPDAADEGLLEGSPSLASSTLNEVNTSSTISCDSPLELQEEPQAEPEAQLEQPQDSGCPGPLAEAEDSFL
T3 sequence (P05622 32-1098): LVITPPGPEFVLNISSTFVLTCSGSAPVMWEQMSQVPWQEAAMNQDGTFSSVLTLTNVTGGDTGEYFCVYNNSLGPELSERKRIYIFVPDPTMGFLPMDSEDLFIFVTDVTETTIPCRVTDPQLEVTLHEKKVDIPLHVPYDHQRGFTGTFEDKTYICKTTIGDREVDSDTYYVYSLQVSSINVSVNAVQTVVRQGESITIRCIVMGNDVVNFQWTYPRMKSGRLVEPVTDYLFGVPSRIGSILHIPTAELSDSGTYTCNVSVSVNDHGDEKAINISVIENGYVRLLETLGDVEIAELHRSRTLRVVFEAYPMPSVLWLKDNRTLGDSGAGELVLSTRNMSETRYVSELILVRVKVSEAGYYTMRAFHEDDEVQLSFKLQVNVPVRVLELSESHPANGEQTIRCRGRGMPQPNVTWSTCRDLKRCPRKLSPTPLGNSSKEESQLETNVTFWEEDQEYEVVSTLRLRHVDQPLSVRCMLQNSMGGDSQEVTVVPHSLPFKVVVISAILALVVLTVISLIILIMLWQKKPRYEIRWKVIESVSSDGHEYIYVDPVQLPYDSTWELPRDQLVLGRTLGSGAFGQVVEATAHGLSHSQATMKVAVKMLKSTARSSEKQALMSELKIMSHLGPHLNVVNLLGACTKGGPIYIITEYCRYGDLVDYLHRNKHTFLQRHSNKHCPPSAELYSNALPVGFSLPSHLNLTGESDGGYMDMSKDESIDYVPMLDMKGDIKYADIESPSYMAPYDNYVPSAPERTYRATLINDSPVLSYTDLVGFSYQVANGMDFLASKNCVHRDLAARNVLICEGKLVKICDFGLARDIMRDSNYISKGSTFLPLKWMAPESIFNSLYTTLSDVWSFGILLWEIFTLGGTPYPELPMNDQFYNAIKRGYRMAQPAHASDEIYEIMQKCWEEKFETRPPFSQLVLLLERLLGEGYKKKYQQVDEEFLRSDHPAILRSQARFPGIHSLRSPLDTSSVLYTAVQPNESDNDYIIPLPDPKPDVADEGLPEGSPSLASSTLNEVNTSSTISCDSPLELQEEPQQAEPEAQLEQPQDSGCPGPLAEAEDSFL
T2 sequence (P09619 33-1106): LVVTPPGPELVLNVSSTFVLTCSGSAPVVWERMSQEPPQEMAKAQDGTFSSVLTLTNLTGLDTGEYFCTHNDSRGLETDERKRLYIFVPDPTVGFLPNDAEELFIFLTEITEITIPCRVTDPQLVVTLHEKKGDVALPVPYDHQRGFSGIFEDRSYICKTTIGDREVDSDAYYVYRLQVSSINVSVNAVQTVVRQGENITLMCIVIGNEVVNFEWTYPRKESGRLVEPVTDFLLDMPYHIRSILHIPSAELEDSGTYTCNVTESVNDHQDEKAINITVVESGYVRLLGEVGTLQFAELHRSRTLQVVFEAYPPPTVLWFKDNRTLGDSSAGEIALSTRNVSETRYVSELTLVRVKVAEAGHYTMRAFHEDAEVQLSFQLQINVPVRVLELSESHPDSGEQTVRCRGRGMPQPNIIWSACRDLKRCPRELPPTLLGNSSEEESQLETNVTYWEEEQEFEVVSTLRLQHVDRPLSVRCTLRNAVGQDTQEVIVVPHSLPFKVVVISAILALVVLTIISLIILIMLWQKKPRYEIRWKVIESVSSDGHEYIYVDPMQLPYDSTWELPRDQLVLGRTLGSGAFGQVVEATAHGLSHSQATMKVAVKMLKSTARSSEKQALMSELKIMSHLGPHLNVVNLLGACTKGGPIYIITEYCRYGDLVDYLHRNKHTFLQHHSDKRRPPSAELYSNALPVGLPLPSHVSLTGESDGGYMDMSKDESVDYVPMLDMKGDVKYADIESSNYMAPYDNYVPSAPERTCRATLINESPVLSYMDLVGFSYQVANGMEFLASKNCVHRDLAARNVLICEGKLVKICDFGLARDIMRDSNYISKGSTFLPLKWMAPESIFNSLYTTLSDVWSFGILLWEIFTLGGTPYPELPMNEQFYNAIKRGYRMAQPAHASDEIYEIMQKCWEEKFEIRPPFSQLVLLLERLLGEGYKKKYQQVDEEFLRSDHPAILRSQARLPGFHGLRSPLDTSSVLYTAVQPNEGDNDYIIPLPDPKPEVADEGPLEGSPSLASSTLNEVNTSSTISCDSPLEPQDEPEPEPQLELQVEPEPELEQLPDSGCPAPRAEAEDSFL

B1: BiPPB (bicyclic PDGF-beta-receptor binding peptide), C(1)SRNLIDC(1)GGGDGGC(2)SRNLIDC(2), FITC-labelled (peptide)
peptide: CSRNLIDCGGGDGGCSRNLIDC
modifications: disulfide 1-8, 15-22; also: FITC label (site not given here)
notes: Used on primary rat hepatic stellate cells; also called FITC-coupled BiPPB
binds: all assays above
